T1: Aurora-A kinase domain 122-403 C290A,C393A (UniProt O14965 122-403, C290A | C393A)
T1 construct: Aurora-A Ser/Thr kinase, kinase domain, residues 122-403
T1 sequence (looked up): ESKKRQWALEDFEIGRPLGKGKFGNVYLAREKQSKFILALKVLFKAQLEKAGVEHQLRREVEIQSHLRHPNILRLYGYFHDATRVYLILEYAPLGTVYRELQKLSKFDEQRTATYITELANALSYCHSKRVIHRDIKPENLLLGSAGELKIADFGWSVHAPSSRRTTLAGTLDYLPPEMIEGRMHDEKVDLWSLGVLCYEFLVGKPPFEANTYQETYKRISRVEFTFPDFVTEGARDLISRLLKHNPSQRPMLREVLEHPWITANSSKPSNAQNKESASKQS

B1: N-myc transactivation domain, N-myc 1-137 (domain or fragment)
chain: GAMMPSCSTSTMPGMICKNPDLEFDSLQPCFYPDEDDFYFGGPDSTPPGEDIWKKFELLPTPPLSPSRGFAEHSSEPPSWVTEMLLENELWGSPAEEDAFGLGGLGGLTPNPVILQDCMWSGFSAREKLERAVSEKLQHG
notes: 15N-labelled for the NMR titration; also called N-myc TAD; N-myc_(1-137) TAD; not shown: His-NusA, N-terminal, cleaved
B2: N-myc 64-137 (domain or fragment)
chain: GAMGSRGFAEHSSEPPSWVTEMLLENELWGSPAEEDAFGLGGLGGLTPNPVILQDCMWSGFSAREKLERAVSEKLQHG
notes: N-myc residues 64-137 (AIH and MBII); 15N-labelled; not shown: His-NusA, N-terminal, cleaved

Target: T1, Aurora-A kinase domain 122-403 …
Assay: NMR titration; 1H-15N HSQC of 15N-labelled N-myc constructs (150-315 uM); aliquots of Aurora-A (305-400 uM) added up to [N-myc]:[Aurora-A] 1:1.4; 20 mM (K/H)3PO4 pH 6.5, 150 mM NaCl, 2 mM beta-mercaptoethanol, 1% glycerol, 5 mM MgCl2, 5 mM ADP
Details: both partners purified

Row | Binder | binding result
1 | B1 | binds
2 | B2 | binds
